Measured values: US11781118B2, “Preparation of L-amino acid deaminase mutant and application thereof” (Jiangnan University, priority 2020, dated 2023)
Changes are numbered by the printed parent chain. In names and notes the source's numbering stands.

B1: PmirLAAD^S98A (protein)
chain: MNISRRKLLLGVGAAGVLAGGAALVPMVRRDGKFVEAKSRASFVEGTQGALPKEADVVIIGAGIQGIMTAINLAERGMSVTILEKGQIAGEQSGRAYAQIISYQTSPEIFPLHHYGKILWRGMNEKIGADTSYRTQGRVEALADEKALDKAQAWIKTAKEAAGFDTPLNTRIIKGEELSNRLVGAQTPWTVAAFEEDSGSVDPETGTPALARYAKQIGVKIYTNCAVRGIETAGGKISDVVSEKGAIKTSQVVLAGGIWSRLFMGNMGIDIPTLNVYLSQQRVSGVPGAPRGNVHLPNGIHFREQADGTYAVAPRIFTSSIVKDSFLLGPKFMHLLGGGELPLEFSIGEDLFNSFKMPTSWNLDEKTPFEQFRVATATQNTQHLDAVFQRMKTEFPVFEKSEVVERWGAVVSPTFDELPIISEVKEYPGLVINTATVWGMTEGPAAGEVTADIVMGKKPVIDPTPFSLDRFKK
B2: PmirLAAD^S98A/T105A (protein)
chain: B1 chain with T105A
B3: PmirLAAD^S98A/T105A/L341A (protein)
chain: B1 chain with T105A, L341A
B4: PmirLAAD^S106A (protein)
chain: B1 chain with A98S, S106A
B5: PmirLAAD^T105A/S106A/L341A (protein)
chain: B1 chain with A98S, T105A, S106A, L341A
B6: PmirLAAD^L341A (protein)
chain: B1 chain with A98S, L341A
B7: PmirLAAD^T105A/S106A (protein)
chain: B1 chain with A98S, T105A, S106A
B8: PmirLAAD^S98A/S106A (protein)
chain: B1 chain with S106A
B9: PmirLAAD^S98A/L341A (protein)
chain: B1 chain with L341A
B10: PmirLAAD^S98A/T105A/S106A (protein)
chain: B1 chain with T105A, S106A
B11: PmirLAAD^T105A (protein)
chain: B1 chain with A98S, T105A
B12: PmirLAAD^T105A/L341A (protein)
chain: B1 chain with A98S, T105A, L341A
B13: PmirLAAD^S106A/L341A (protein)
chain: B1 chain with A98S, S106A, L341A
B14: PmirLAAD^S98A/S106A/L341A (protein)
chain: B1 chain with S106A, L341A

Experiments:
[1] = biological target: Proteus mirabilis L-amino acid deaminase (PmirLAAD) mutant M2, S98A/T105A, SEQ ID NO: 11 (Proteus mirabilis, UniProt Q51890, S98A/T105A); test: Product inhibition constant determination, mutant M2; assay type: biochemical; details: M2 relative to WT
Experimental: (§1) In order to evaluate the mutants, kinetic parameters of the mutant parent PmirLAAD^WT and the mutants PmirLAAD^M1, PmirLAAD^M2, PmirLAAD^M3 and PmirLAAD^M4 at 25° C. were determined in the disclosure.
(§2) kcat/Km was calculated based on the initial rate of α-ketoisovaleric acid produced from hydrolyzed L-valine substrates with different concentrations determined at 25° C. Product inhibition of the parent enzyme and the mutants was determined by a product inhibition constant determination experiment in the transformation process. A PmirLAAD^WT parent enzyme strain and mutant strains were respectively added to a reaction solution with the final concentration of wet cells of 10 g/L. 60 mM L-valine was used as the substrate, 10-100 mM α-ketoisovaleric acid was added to the transformation system, the initial reaction rate V0 was determined after about 30 min of reaction, the maximum reaction rate Vmax was determined after about 2 h of reaction, and the product inhibition constant KPI was calculated according to the following formula: […]
(§3) V0: initial reaction rate, Vmax: maximum reaction rate, Km: Michaelis constant, [S]: substrate concentration, [P]: product concentration, KPI: product inhibition constant.

[2] = biological target: Proteus mirabilis L-amino acid deaminase (PmirLAAD), wild-type parent, SEQ ID NO: 1 (Proteus mirabilis, UniProt Q51890); test: Product inhibition constant determination, parent enzyme PmirLAAD WT; assay type: biochemical; details: relative to WT
Experimental: as §1, §2, §3

[3] = system: Proteus mirabilis L-amino acid deaminase (PmirLAAD) mutant M4, S98A/T105A/S106A/L341A, SEQ ID NO: 15; test: Product inhibition constant determination, mutant M4; assay type: biochemical
Experimental: as §1, §2, §3

[4] = system: Proteus mirabilis L-amino acid deaminase (PmirLAAD) mutant M3, S98A/T105A/S106A, SEQ ID NO: 13; test: Product inhibition constant determination, mutant M3; assay type: biochemical; details: M3 relative to WT
Experimental: as §1, §2, §3

[5] = system: Proteus mirabilis L-amino acid deaminase (PmirLAAD) mutant M1, S98A, SEQ ID NO: 3; test: Product inhibition constant determination, mutant M1; assay type: biochemical; details: M1 relative to WT
Experimental: as §1, §2, §3

[6] = biological target: Proteus mirabilis L-amino acid deaminase (PmirLAAD) mutant M4, S98A/T105A/S106A/L341A, SEQ ID NO: 15 (Proteus mirabilis, UniProt Q51890, L341A/S106A/S98A/T105A); test: Kinetic parameters with L-valine as substrate, mutant M4; assay type: biochemical; details: M4 compared with parent enzyme, "increased by", 25° C.
Experimental: as §1, §2

CC(C)[C@H](N)C(=O)O = test: Kinetic parameters with L-valine as substrate, parent enzyme PmirLAAD WT; assay type: biochemical, Proteus mirabilis; details: other: L-valine substrate, 25° C., initial rate of α-ketoisovaleric acid
Experimental: as §1, §2

[7] = Shake flask screening of mutants: whole-cell transformation of L-valine, α-ketoisovaleric acid determined by HPLC; assay type: cell-based, E. coli BL21; details: transformation temperature 25° C., pH 8.0, 24 h
Experimental: Preparation of sample for determining α-ketoisovaleric acid content by HPLC: 1 mL of a transformed transformation solution is centrifuged at 12000 rpm for 5 min, the supernatant is diluted and filtered through a 0.45 μm filtration membrane, and the filtrate is for liquid chromatography.
Determination of α-ketoisovaleric acid content by HPLC: a waters high performance liquid chromatograph (equipped with a UV-visible detector) and a Bio-Rad Aminex HPX-87H (300×7.8 mm, 9 μm) chromatographic column are used, and the mobile phase is dilute sulfuric acid with the concentration of 2.5 mmol/L. The mobile phase is filtered through a 0.22 μm filtration membrane; the filtrate is subjected to ultrasonic degassing; and detection is performed at the flow rate of 0.6 mL/min, the column temperature of 35° C. and the ultraviolet detection wavelength of 210 nm.
(2) Shake flask screening of single mutants: The obtained 4 mutant strains and a strain containing wild-type L-amino acid deaminase were respectively inoculated into an LB seed medium, and cultured at 200 rpm at 37° C. for about 10 h. The products were respectively inoculated into a shake flask fermentation medium with the inoculum size of 5% of the medium by volume, and cultured at 200 rpm at 37° C. until OD600 was about 0.8. IPTG with the final concentration of 0.04 mmol/L was added for induction, and the induction was performed at 200 rpm at 25° C. for 14 h. The product was centrifuged at 6000 rpm for 8 min to collect bacterial cells. The bacterial cells collected by centrifugation were used for later transformation experiments.
Transformation conditions: transformation temperature 25° C., reaction pH 8.0, and transformation time 24 h.
The yield of α-ketoisovaleric acid of the transformation solution after the completion of the transformation was determined by HPLC. Finally, S98A produced α-ketoisovaleric acid at the highest yield.

| Molecule | α-ketoisovaleric acid [7] | other results |
| --- | --- | --- |
| CC(C)C(=O)C(=O)O [α-ketoisovaleric acid] |  | Times of change (KPI) [1]: 3.9; Times of change (KPI) [2]: 1; increase of product inhibition constant ([3]; M4 compared with parent enzyme, "increased by"): 5.7 times; Times of change (KPI) ([3]; M4 relative to WT): 6.7; Times of change (KPI) [4]: 4.6; Times of change (KPI) [5]: 2.6 |
| CC(C)[C@H](N)C(=O)O [L-valine] |  | increase of kcat/Km (catalytic efficiency) [6]: 5.2 times |
| Proteus mirabilis L-amino acid deaminase (PmirLAAD), wild-type parent, SEQ ID NO: 1 (Proteus mirabilis) |  | kcat/Km (CC(C)[C@H](N)C(=O)O): 4.33 M⁻¹ s⁻¹ |
| B1 | 46.9 g/L |  |
| B2 | 52.6 g/L |  |
| B3 | 56.1 g/L |  |
| B4 | 44.9 g/L |  |
| B5 | 59.6 g/L |  |
| B6 | 43.6 g/L |  |
| B7 | 49.4 g/L |  |
| B8 | 50.9 g/L |  |
| B9 | 51.5 g/L |  |
| B10 | 60.6 g/L |  |
| B11 | 44.6 g/L |  |
| B12 | 47.1 g/L |  |
| B13 | 46.5 g/L |  |
| B14 | 53.5 g/L |  |
